Reference: a protein production outcome set (Wang et al. 2014)

Assay: label from the status in PepcDB records

## MGSLVHVKEATVITPSDQTPSSVLSLSALDSQLFLRFTIEYLLVYPPVSDPEYSLSGRLKSALSRALVPYFPFSGRVREKPDGGGGLEVNCRGQGALFLEAVSDILTCLDFQKPPRHVTSWRKLLSLHVIDVLAGAPPLVVQLTWLRDGGAALAVGVNHCVSDGIGSAEFLTLFAELSKDSLSQTELKRKHLWDRQLLMPSPIRDSLSHPEFNRVPDLCGFVNRFNAERLVPTSVVFERQKLNELKKLASRLGEFNSKHTSFEVLSAHVWRSWARSLNLPSNQVLKLLFSVNIRDRVKPSLPSGFYGNAFVVGCAQTTVKDLTEKGLSYATMLVKQAKERVGDEYVRSVVEAVSKERASPDSVGVLILSQWSRLGLEKLDFGLGKPVHVGSVCCDRYCLLLPIPEQNDAVKVMVAVPSSSVDTYENLVTSPNA
  protein production: failed

## NNINVITDQMGNLDIKSNDNINQNTQNSNVASDLNLLTQNKYLENILMMNTYGVNYDHLFLPQNVAYLAAQQLSNNIMNNRNQINAAYTSQQYPNQSIPIKNIYDQSHLKYQQNSSSWRPPLNNGNIYDGVKSNPMGLHILQNGIDLYTNVDSNSVTSAINFDKYDSIPVSVTGPDYSATNVIENFDELKLDPTIRNNILLASYQRPTPIQKNAIPAILEHRDIMACAQTGSGKTAAFLIPIINHLVCQDLNQQRYSKTAYPKCLILAPTRELAIQILSESQKFSLNTPLRSCVVYGGADTHSQIREVQMGCHLLVATPGRLVDFIEKNKISLEFCKYIVLDEADRMLDMGFEPQIRKIIEESNMPSGINRQTLMFSATFPKEIQKLAADFLYNYIFMTVGRVGSTSDSIKQEIIYMTDVEKLNYLKNIFNTTAPNTLILIFVETKKGADSLARFLLSKGYPVSSIHGDRSQVEREAALSMFRNGQCPILVATAVAARGLDIPNVKHVINYDLPSDIEEYVHRIGRTGRLGNHGRATSFYVDKNNNIAIDLVDLLKEANQIVPQWLSALADELKRNSTMGSNNKRHNQRRYKNGNFGGRDYRQGPSNVNMNSGVNPDYFISGSVAPRHAKLNNGNYFPRSNELHDQHQKQNNNNNQVISNTFHTGISASHLIPGYATFNRQQAPLHFIPHQTNNTQFLSSSGQMALYNRMQNSGHMAPNQRFPNEPIHHQQEQLPITYNFSKNLPYLGQSYSGHNNNNNNNNNTSKINDSDSCYFGNKTPR
  protein production: not failed

## MVDQNPEEYYSKGILQYDDGNYTESIDLFEKAIQLNPEESKYWLMKGKALYNLERYEEAVDCYNYVINVIEDEYNKDVWAAKADALRHIEGKEVEAEIAEARAKLEHHHHHH
  protein production: not failed

## SKHAKSFKDDMYLRTEHVVWQKEMLTLARLAAAVDMAAADSKDVANSHIFDAMVNQKIKLQNPEVLKKWLGEQTAFDGKKVLAAYESPESQARADKMQELTETFQIDGTPTVIVGGKYKVEFADWESGMNTIDLLADKVREEQKAAQ
  protein production: failed

## MARMAVTLTHVMAMHAQILKFIVTALFVVPLFLAPAEAQTSETDLLAQLQTAPESEANRLERELALIWDQSGSAAMDLLLKRGREALEDEDNARAVEHLSALTDHAPEFAEGWHARATALYRAGLYGPALDALHQALLLNPNNFNAIFGLGVMMREFGDLDRAARAFDRVLELHPHHKRAKAAKEQMAVQGLGQTL
  protein production: failed

## MKMDTGALTFQQKIYWLVKQIPLGRVATYGQIAALCGWPRHGRYVGYALYRVAPNSDIPWHRVVNAQGKISYAPQRRGTDELQRWRLAAEGIIFTAGLEHHHHHH
  protein production: failed

## MSLALRGELVVDKTKRKKRRELSEEQKQEIKDAFELFDTDKDQAIDYHELKVAMRALGFDVKKADVLKILKDYDREATGKITFEDFNEVVTDWILERDPHEEILKAFKLFDDDDSGKISLRNLRRVARELGENMSDEELRAMIEEFDKDGDGEINQEEFIAIMTGDI
  protein production: not failed

## MAMWVFGYGSLIWKTGFPFDESLPGFIKGYRRVFHQGSTDHRGTPDFPGRTVTLEAAHEEHLEVREKQYDQKEYLDFFTDSNASEPAVAGVMVYIASPDKKSNNNYLGPAPLEDIAKQIVKAKGPSGPNRDYLFNLEEALAQLGFKDKHVTDLANQVRHILSESEELDIDATAATANNV
  protein production: failed

## MDESAALRAFQDALRTQRPEFGQFFLARLLGLDISYPDGQCLIVFEPQDFLFNPQGSLHGGIIATVMDISMGHLLNHVQGAGLTLEMKTQYLKAVRQGTVYCRGEFLQRGRSVSFLKSTLTDAQGEPLAMATSTWKALSPLEHHHHHH
  protein production: not failed

## SAKTDKLAQFLDSGIYESDEFNWFFLDTVRITNRSYTRFKVSPSAYYSRFFNSKQLNQHSSESNPKKRKRKQKNSSFHLPSVGEQASNLRHQEARLFLSKAHESFLKEIELLSLTKGLSDDNDDDDSSLLNKCCDDEVSFIELGGVWQAPFYEITLSFNLHCDNEGESCNEQRVFQVFNNLVVNEIGEEVEAEFSNRRYIMPRNSCFYMSDLHHIRNLVPEKISHYHIGRRCNSLIDVIYAAKSEEGYNLIVIDPPWENASAHQKSKYPTLPNQYFLSLPIKQLAHAEGALVALWVTNREKLLSFVEKELFPAWGIKYVATMYWLKVKPDGTLICDLDLVHHKPYEYLLLGYHFTELAGSEKRSDFKLLDKNQIIMSIPGDFSRKPPIGDILLKHTPGSQPARCLELFAREMAAGWTSWGNEPLHFQDSRYFLKV
  protein production: failed

## ARNAVMVIDGIPVTKSSNTINDALEGVTFNLLKANPGTTTTLTVEKDKSNVEAAVNAFVKAYNDLEKTIGNLSRYDAANKQASVLTGDSTMRMIQNRMRAMLGGNQSAAGGINSLSELGISFQKDGTLALDNNKLSAVLNNPDKNIAAFFTTQGGDDTTSVEGFASRLSELIDGMTRSDGLISSRMDGINSTIKGIGKQREALEFRLESVEKRLRAQFTALDTMIASMNQ
  protein production: not failed

## EFTTMLGPAVLGLSLWALLHPGTGAPLCLSQQLRMKGDYVLGGLFPLGEAEEAGLRSRTRPSSPVCTRFSSNGLLWALAMKMAVEEINNKSDLLPGLRLGYDLFDTCSEPVVAMKPSLMFLAKAGSRDIAAYCNYTQYQPRVLAVIGPHSSELAMVTGKFFSFFLMPQVSYGASMELLSARETFPSFFRTVPSDRVQLTAAAELLQEFGWNWVAALGSDDEYGRQGLSIFSALAAARGICIAHEGLVPLPRADDSRLGKVQDVLHQVNQSSVQVVLLFASVHAAHALFNYSISSRLSPKVWVASEAWLTSDLVMGLPGMAQMGTVLGFLQRGAQLHEFPQYVKTHLALATDPAFCSALGEREQGLEEDVVGQRCPQCDCITLQNVSAGLNHHQTFSVYAAVYSVAQALHNTLQCNASGCPAQDPVKPWQLLENMYNLTFHVGGLPLRFDSSGNVDMEYDLKLWVWQGSVPRLHDVGRFNGSLRTERLKIRWHTSDNQKPVSRCSRQCQEGQVRRVKGFHSCCYDCVDCEAGSYRQNPDDIACTFCGQDEWSPERSTRCFRRRSRFLAWGEPAVLLLLLLLSLALGLVLAALGLFVHHRDSPLVQASGGPLACFGLVCLGLVCLSVLLFPGQPSPARCLAQQPLSHLPLTGCLSTLFLQAAEIFVESELPLSWADRLSGCLRGPWAWLVVLLAMLVEVALCTWYLVAFPPEVVTDWHMLPTEALVHCRTRSWVSFGLAHATNATLAFLCFLGTFLVRSQPGRYNRARGLTFAMLAYFITWVSFVPLLANVQVVLRPAVQMGALLLCVLGILAAFHLPRCYLLMRQPGLNTPEFFLGGGPGDAQGQNDGNTGNQGKHE
  protein production: failed

## MTSAQKPVFSPSDLQTWLEIATEAVLAAGAEIFSLWGKVQQIQEKGRAGDLVTEADRQAEAIILEIIKRRCPDHAILAEESGQLGQVDNPFCWAIDPLDGTTNFAHSYPVSCVSIGLLIQDIPTVGVVYNPFRQELFRAATSLGATLNRRPIQVSTTASLDKSLLVTGFAYDRVKTLDNNYPEFCYLTHLTQGVRRSGSAAIDLIDVACGRLDGYWERGINPWDMAAGIVIVREAGGIVSAYDCSPLDLSTGRILATNGKIHQELSQALAATPQWFQQYAAARAQKI
  protein production: failed

## MEVNGEEERRSRREDEEKEDYYYSLLNSPCSVCNKFVQAILKCLGLESSSIPPSSSSSSPSLVEEEDSGTETVEETGFMARITAVLRRRPRPPPYSSGRPGQNN
  protein production: not failed

## TEDTVIKVSVLRGPSVIAFADWLENPPIIDNKKVQVKVVDSPDLAQALLIKQETDIAVLPMINAANLYNKGIKIKLAGCPIWGTLYLVEKTPLKEPALYVFGNGTTPDILTRYYLGRQRLDYPLNYAFNTAGEITQGILAGKVNRAVLGEPFLSIALRKDSSLRITADLNHLTDNDTLGFAQTAVVYTPTMEKYRIAFEDALRASCQKAVRYPKETIHSLEEHGIFAQGALTPKSIERCKIYYLSAIEAKDAVMGFLRLIEQYEPKAVGGRLPDAGFIPEKQ
  protein production: not failed

## MSTSDSCYNTGYILRICAIAALGGILFGYDTAVISGAIGSLTSYFHLSPAETGWAVSCVVVGCVIGSFSAGYLSKRFGRKKSLMVSALLFTISAVGTSLSYTFTHFVIYRIIGGLAVGLAATVSPMYMSEVSPKNMRGRALSMQQFAIVFGQILIFYVNYKIASIAADTWLIELGWRYMFAAGIIPCILFCILVFLIPESPRWMMMIGREEETLKILTKISNEEHARHLLADIKTSLQNDQLNAHQKLNYRDGNVRFILILGCMIAMLQQVTGVNVMMYYAPIVLKDVTGSAQEALFQTIWIGVIQLIGSIIGAMIMDKMGRLSLMRKGTIGSIIGLLLTSWALYSQATGYFALFGMLFFMIFYALSWGVGAWVLISEIFPNRMRSQGMSISVGFMWMANFLVSQFFPMINENPYLLSHFHGAFPMWIFAICCIFSYFFICRYLPETKGISLEKMESVVLAKRRKKLQPIQTERYSD
  protein production: failed

## KRQKIHLGDRSQKCSKCGIIFIRRSTLSRRKTPMCEKCRKDSCQEAALNKDEGNESGKKT
  protein production: not failed

## MLSKIVDINAARQNIDMKVKLLSLNKRTIKNDRGETVYYYGIIGDETGTVPFTAWTFPPAVRVGDVIEIRSCYSNIYNGKIRIYIDGRSEVILKPDVEMEVKRSSDLVKIRDVSLSTPYVSVIGKITGIHKKEYESDGTTKSVYQGYIEDDTARIRISSFGKQLQDSDVVRIDNARVAQFNGYLSLSVGDSSRIESVNVNIPEKPRHIFISEIRSPVGGITIVGFVVSVGQGSRIFTKCSVCRRIVEDGTCKDHPKAPVYPDIFGYFSISDGTGTITCYINSDSFLPYAGISQDQFRRDAYSMNPNSLIKKNLLGKCISVSGDLRSQDDRIVMNVQSMKAISAEDNREIESIIEEEFQ
  protein production: failed

## MALVRKDVVKLAAPIFVEQLFVTLMGMINTMMAGHIGKEAVSAIGMIDSINNIFIAFFSALAVGGTVVVAQYIGQNNIKKANESTKQALYSTIIIAFVITIIMAILKGPLLGFLFGSAEKEVILDANSYFGITLLTYPLITIDLVSNGILRGAGDTKTPMKISILMNVLNVAFTALFIWGIKINGTVVVKSLGITGAALGIATARTIGGIIILIVMVRGSRIVQLKKLTEFKFDMTLLKPIFGIGVPASVESLLFNGGKLIMQIFIVGMGTVAMASNTIVNSISNFLNIPGNSLVIAATALVGQHMGRDDDKGAEKCLSYITKLSTVLLAIVGILSILFSRHLPSPVYWK
  protein production: failed

## MEIKSILIANRGEIALRALRTIKEMGKKAICVYSEADKDALYLKYADASICIGKARSSESYLNIPAIIAAAEIAEADAIFPGYGFLSENQNFVEICAKHNIKFIGPSVEAMNLMSDKSKAKQVMQRAGVPVIPGSDGALAGAEAAKKLAKEIGYPVILKAAAGGGGRGMRVVENEKDLEKAYWSAESEAMTAFGDGTMYMEKYIQNPRHIEVQVIGDSFGNVIHVGERDCSMQRRHQKLIEESPAILLDEKTRTRLHETAIKAAKAIGYEGAGTFEFLVDKNLDFYFIEMNTRLQVEHCVSEMVSGIDIIEQMIKVAEGYALPSQESIKLNGHSIECRITAEDSKTFLPSPGKITKYIPPAGRNVRMESHCYQDYSVPAYYDSMIGKLVVWAEDRNKAIAKMKVALDELLISGIKTTKDFHLSMMENPDFINNNYDTNYLARH
  protein production: not failed
